Measured values from patent US20110217317A1 (published 2011).
Changes are numbered by the printed parent chain.

B1: RhD321.187G08 (Fab, V domains shown)
VH: EVQLVESGGGLVKPGGSLRLSCAASGFTFRSYSMNWVRQAPGKGLEWVSSIGSSSIYTYSADSVKGRFTISRDNAKNSLYLQMNSLRAEDTAVYYCARGEPLNYDYIWGRSRLTIHWGQGTLVTVSS
VL: LNFMLTQPHSVSESPGKTVTISCTRSSGSIASNYMQWYQQRPGSSPTTVIYEDNRRPSGVPDRFSGSIDSSSNSASLTISGLKTEDEADYYCQSYDSNNWVFGGGTKLTVLG
notes: Tested as Fab (periplasmic extract)
B2: RhD323.229B07 (Fab, V domains shown)
VH: QVQLVESGGGVVQPGRSLRLSCAASGFTFSSYGMHWVRQAPGKGLEWVAVIWYDGSNKYYADSVKGRFTISRDNSKNTLYLQMNSLRAEDTAVYYCARDWVTRSSNWYRNYYYYGMDVWGQGTTVTVSS
VL: DIQMTQSPSSLSASVGDRVTITCRASQSISSYLNWYQQKPGKAPKLLIYAASTLQSGVPSRFSGSGSGTDFTLTISSLQPEDFATYYCQQYYRTPTWTFGQGTKVEIKR
notes: as for B1
B3: RhD324.231F07 (Fab, V domains shown)
VH: EVQLVESGGGLVQPGRSLRLSCVASGFTFSSYWMHWVRQVPGKGLVWVSRINVDGKSTSYADSVKGRFTISRDNAKNTLYLQMNSLRAEDTAVYYCARDPRRFLEWARYGMDVWGRGTTVTVSS
VL: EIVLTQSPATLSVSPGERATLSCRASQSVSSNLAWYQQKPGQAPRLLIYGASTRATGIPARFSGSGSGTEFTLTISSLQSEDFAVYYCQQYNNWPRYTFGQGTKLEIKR
notes: as for B1
B4: RhD162.119G12 (Fab, V domains shown)
VH: QVQLVESGGGLVKPGGSLRLSCAASGFGFSAYSMNWVRQAPGKGLEWVSSITSTTTYYADSVKGRFSISRDNAKSTLYLRMNSLRAEDTAVYYCVREIAFRGSTYSRWSYYFDFWGQGTLVTVSS
VL: DIQLTQSPSSVSASVGDSVTITCRASQAVSGWVAWYQQKPGKAPKLLIFGLSNLEDGVPSRFSGSGSATDFTLTITGLQPEDLATYYCLQANRFPLSFGGGTRVEIKR
notes: as for B1
B5: RhD163.119A02 (Fab, V domains shown)
VH: QVQLQESGPGLVKPSETLSLTCTVSGGSISSYYWSWVRQPPGKGLEWIGYIYYSGSTNYNPSLKSRVTIALDTSKNQFSLKLRSVTAADTAVYFCTRDWRQYGSAIRGSRYYYGMDVWGQGTTVTVSS
VL: EIVLTQSPGTLSLSPGERATLSCRASQNPRRNFLAWYQQKPGQAPRLLIYAASTRATGIPDRFSGSGSGTDFTLTIDRLEPEDSAVYYCQVYGSSPLYTFGQGTKVEMKR
notes: as for B1
B6: RhD189.181E07 (Fab, V domains shown)
VH: B2 VH with W100M, R103M, S104V, S105R, N106G, W107A, Q121K
VL: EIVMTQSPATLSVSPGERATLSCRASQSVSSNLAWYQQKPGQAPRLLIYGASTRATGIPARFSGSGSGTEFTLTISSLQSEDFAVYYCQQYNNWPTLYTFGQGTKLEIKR
notes: as for B1

What follows are binders tested against T1, Rhesus D antigen (human, UniProt Q02161 2-417) (assay: Fab screening on red blood cells (agglutination/FACS)).
T1 construct: whole, on cells; Presented on RhD-positive erythrocytes in all assays; also called RhD; RhD antigen
T1 sequence (looked up): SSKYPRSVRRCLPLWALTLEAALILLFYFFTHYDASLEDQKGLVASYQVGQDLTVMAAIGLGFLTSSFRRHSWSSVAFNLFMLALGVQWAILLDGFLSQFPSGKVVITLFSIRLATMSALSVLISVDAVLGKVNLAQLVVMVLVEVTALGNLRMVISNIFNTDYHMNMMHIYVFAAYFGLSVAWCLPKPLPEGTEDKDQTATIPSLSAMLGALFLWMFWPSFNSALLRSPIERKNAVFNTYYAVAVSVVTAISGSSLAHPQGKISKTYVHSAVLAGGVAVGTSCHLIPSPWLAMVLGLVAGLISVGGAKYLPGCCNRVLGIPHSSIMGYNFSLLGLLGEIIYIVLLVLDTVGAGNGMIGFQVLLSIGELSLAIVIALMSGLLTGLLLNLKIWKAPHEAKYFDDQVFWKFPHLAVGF

Question: Does B1 bind?
Answer: binds

Question: Does B2 bind?
Answer: binds

Question: Does B3 bind?
Answer: binds

Question: Does B4 bind?
Answer: binds

Question: Does B5 bind?
Answer: binds

Question: Does B6 bind?
Answer: binds
